Reference: patent US20050048594

Key:
[1] = test system: T1, CF3-CO N-capped-AKTide (CF3-CO-ARKRERAYSFGHHA)
T1 sequence: ARKRERAYSFGHHA

[2] = test system: T2, peptide ARKRERAF(3-CF3)SFGHHA
T2 sequence: ARKRERAFSFGHHA

WtAKT1 recombinant protein (activated protein Ser/Thr kinase AKT1)
phosphorylation of the peptide followed by 19F NMR (time to complete conversion; 50 nM AKT1, 30 uM peptide, 131 uM ATP) [1]: The enzymatic reaction is complete after 149 minutes and only the signal of the phosphorylated peptide is visible in the spectrum
phosphorylation of the peptide followed by 19F NMR (25 nM AKT1) [2]: The peptide is a good substrate for AKT1 and trypsin
